Residue numbers refer to the chain shown, from its start.
B1: hu14C5B (antibody, V domains shown, not shown: a dimerising Fc or GST)
VH: EVQLVESGGGLVQPGGSLRLSCAASGYSFTMYNINWVKQAPGKGLEWIGNLDAYYGGSNYNPKFKDKATLSRDNSKNTAYLQMNSLRAEDTAVYYCTRILWSRDFYTMDYWGQGTLVTVSS
VL: DIQVTQSPSSLSASVGDRVTITCRTSQDISNYLHWYQQKPGKAPKLLIYSTSTGHSGVPSRFSGSGSGTDFTLTISSLQPEDFATYFCQQSYTLAYTFGQGTKVEIKR
B2: hu14C5B-1 (antibody, V domains shown, not shown: a dimerising Fc or GST)
VH: B1 VH with Y27F, S28T, T30S, M31A, A53P, F105Y
VL: B1 VL with G54A, A95L
B3: hu14C5B-2 (antibody, V domains shown, not shown: a dimerising Fc or GST)
VH: B1 VH with Y27F, S28T, T30S, M31L, A53P, F105Y
VL: B1 VL with G54A, A95L
B4: hu14C5B-5 (antibody, human IgG1, kappa, V domains shown)
VH: B1 VH with Y27F, S28T, T30S, M31A, A53P, F105Y
VL: B1 VL with G54L, A95P
B5: hu14C5B-6 (antibody, V domains shown, not shown: a dimerising Fc or GST)
VH: B1 VH with Y27F, S28T, T30S, M31L, A53P, F105Y
VL: B1 VL with G54L, A95P
B6: m14C5B (antibody, mouse IgG1, V domains shown)
VH: EVQLQQSGPELEKPGASVKISCRTSGYSFTMYNINWVKQTNGKSLEWIGNLDAYYGGSNYNPKFKDKATLTVDISSNTAFMQLWSLTSEDSAVYYCTRILWSRDFYTMDYWGRGTSVTVSS
VL: DIQVTQTSSSLSASLGDRVTITCRTSQDISNYLHWYQQTPDGTVKLLIYSTSTGHSGVPSRFSGSGSGTDYSLTISNLEQEDIATYFCQQSYTLAYTFGGGTKLEIKR

Molecular target: 重组人HER2蛋白的胞外区 (rHER2-ECD) (human) (UniProt P04626)
Assay: SPR (BIACORE3000), rHER2-ECD coupled to CM5 chip, antibody in flow, 25 °C

Row | Binder | Kd [nM]
1 | B1 | 0.242
2 | B2 | 8.53
3 | B3 | 31.5
4 | B4 | 0.186
5 | B5 | 4.62
6 | B6 | 0.295

From CN108610419A
